Experimental data reported in IntAct's records for PubMed 27013965.

Biological target: lrp6_human LRP6 (UniProt O75581)
Chain of UniProt O75581 (O75581 whole entry): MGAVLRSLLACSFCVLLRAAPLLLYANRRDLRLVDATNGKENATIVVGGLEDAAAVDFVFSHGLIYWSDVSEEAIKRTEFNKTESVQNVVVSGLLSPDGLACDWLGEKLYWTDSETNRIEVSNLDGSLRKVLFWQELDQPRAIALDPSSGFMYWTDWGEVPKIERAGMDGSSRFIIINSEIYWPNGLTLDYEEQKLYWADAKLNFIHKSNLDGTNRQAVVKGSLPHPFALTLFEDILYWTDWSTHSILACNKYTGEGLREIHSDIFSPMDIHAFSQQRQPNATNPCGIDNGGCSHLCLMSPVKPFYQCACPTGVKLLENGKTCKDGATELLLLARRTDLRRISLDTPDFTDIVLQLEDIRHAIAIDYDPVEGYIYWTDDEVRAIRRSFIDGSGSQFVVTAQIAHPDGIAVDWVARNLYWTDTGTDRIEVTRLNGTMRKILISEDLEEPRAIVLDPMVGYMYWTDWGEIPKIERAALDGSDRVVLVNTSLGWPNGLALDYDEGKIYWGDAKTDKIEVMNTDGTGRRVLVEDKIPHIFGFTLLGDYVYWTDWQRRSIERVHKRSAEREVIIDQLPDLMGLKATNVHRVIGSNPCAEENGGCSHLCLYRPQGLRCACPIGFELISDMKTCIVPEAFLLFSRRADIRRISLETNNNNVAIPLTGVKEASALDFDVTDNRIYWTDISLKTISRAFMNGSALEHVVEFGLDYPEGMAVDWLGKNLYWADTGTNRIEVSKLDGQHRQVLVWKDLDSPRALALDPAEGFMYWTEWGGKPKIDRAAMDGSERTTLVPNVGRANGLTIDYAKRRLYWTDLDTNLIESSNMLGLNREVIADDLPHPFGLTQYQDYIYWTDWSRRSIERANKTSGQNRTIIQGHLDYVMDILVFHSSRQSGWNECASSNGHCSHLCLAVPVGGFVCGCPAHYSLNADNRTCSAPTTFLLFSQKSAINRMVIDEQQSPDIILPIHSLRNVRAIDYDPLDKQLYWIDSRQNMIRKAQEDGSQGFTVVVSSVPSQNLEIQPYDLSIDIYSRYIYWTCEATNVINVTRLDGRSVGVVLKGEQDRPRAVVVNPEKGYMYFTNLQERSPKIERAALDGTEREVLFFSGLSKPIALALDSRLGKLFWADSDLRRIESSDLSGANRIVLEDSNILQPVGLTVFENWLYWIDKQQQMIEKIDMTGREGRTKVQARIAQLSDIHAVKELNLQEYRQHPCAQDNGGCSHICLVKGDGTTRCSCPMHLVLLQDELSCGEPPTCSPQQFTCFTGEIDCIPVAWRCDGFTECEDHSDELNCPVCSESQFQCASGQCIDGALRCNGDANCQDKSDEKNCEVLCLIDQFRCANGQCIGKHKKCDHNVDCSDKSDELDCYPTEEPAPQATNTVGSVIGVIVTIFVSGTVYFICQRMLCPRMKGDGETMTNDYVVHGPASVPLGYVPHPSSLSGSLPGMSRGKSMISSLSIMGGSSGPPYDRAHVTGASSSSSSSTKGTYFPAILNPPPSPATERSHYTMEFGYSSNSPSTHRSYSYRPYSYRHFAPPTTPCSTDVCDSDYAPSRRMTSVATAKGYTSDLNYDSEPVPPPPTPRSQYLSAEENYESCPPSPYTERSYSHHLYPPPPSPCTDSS

| Substance | effect of a mutation on the interaction |
| --- | --- |
| Leucine-rich repeat serine/threonine-protein kinase 2 (Homo sapiens), Q5S007 R1398H | decreasing interaction strength |
| Leucine-rich repeat serine/threonine-protein kinase 2 (Homo sapiens), Q5S007 R1441G | decreasing interaction strength |
